From US20020088017A1, “Adenosine deaminase deficient transgenic mice and methods for the use thereof” (Board of Regents, The University of Texas System, priority 1999, published 2002)

What was measured:
[1] = test system: ADA deficient mice; test: PEGADA enzyme therapy of ADA deficient mice: respiratory status and survival; assay type: in vivo
Text: The inventors contemplate that PEGADA treatments may be chronic or acute. In preferred chromic treatments a constant level of PEGADA is maintained in the mouse at concentrations of 150 to 300 U/Kg. In preferred acute treatments, a single dose of PEGADA (300 U/Kg) is given.
For chronic treatment of the mice of the present invention, litters are given an intramuscular injection of PEGADA at four days of postnatal file. The initial dose of PEGADA given is approximately 300 U/Kg body weight, where U (unit) is defined as 1 μmole adenosine converted to inosine per minute. this dose is within an order of magnitude of that given to treat ADA deficient humans. Mice were treated every four days with a dose of 150 to 300 U/Kg.
For acute treatment of the mice of the present invention, mice are injected intramuscularly once on postnatal day 18 with 300 U/kg PEGADA.
(§1) PEGADA, also known as ADAGEN, was obtained through collaboration with Enzon Inc. (Piscataway, N.J.). Control or ADA deficient mice were lightly anesthetized and injected intramuscularly with 10 microlitetrs of PEGADA corresponding to approximately 2.5 Units of ADA. […] Levels of ADA enzyme activity in tissues was measured using zymogram analysis according to established procedures (Blackburn et al., 1998). This procedure visualizes enzyme activity on non-denaturing agarose gels (Blackburn et al., 1998).
Polyethylene glycol modified ADA (PEGADA) enzyme therapy is a lifesaving strategy used to treat ADA deficient humans (Hershfield et al., 1993). […] The inventors treated ADA deficient mice with intramuscular injections of PEGADA (ENZON, Inc.; Piscataway, N.J.) in an attempt to modulate the respiratory distress seen. Mice were treated intramuscularly with 300 units of PEGADA. […] Even more striking was the observation that PEGADA could reverse the phenotype of an ADA deficient animal after its onset. ADA deficient animals were allowed to develop severe lung inflammation and damage (day 17), and were then treated with PEGADA.

[2] = test system: ADA deficient mice; test: ELISA of serum IgE and BALF cytokines after PEGADA; assay type: in vivo; conditions: PEGADA enzyme therapy
Description: IFNg, IL-4 and IL-5 levels in BALF were determined using specific murine OptiEA ELISA kits from Pharmagen according to manufactures instructions. For the analysis of IgE levels, blood was collected from the heart of anesthetized mice and the serum separated by centrifugation of samples at 3,000 rpm for 10 min a 4 degrees C. A murine OptiEA ELISA kit from Pharmagen was utilized to quantitate serum IgE levels. Values were read and quantitated at linerarity using a MRX II plate reader equipped with Revelation software (Dynex Technologies).
PEGADA, also known as ADAGEN, was obtained through collaboration with Enzon Inc. (Piscataway, N.J.). Control or ADA deficient mice were lightly anesthetized and injected intramuscularly with 10 microlitetrs of PEGADA corresponding to approximately 2.5 Units of ADA. Injections were given either chronically every 4 days starting at postnatal day 4, or acutely, as one injection on postnatal day 18. Levels of ADA enzyme activity in tissues was measured using zymogram analysis according to established procedures (Blackburn et al., 1998). This procedure visualizes enzyme activity on non-denaturing agarose gels (Blackburn et al., 1998).
(§2) Cell populations were monitored in BALF collected from ADA deficient mice 72 hours following treatment with PEGADA (FIG. 5A), in order to determine what effect PEGADA treatment had on lung inflammation. […]

[3] = test system: ADA deficient humans; conditions: weekly intramuscular injection; cited from earlier work
[4] = test system: adenosine in the lungs of ADA deficient mice; test: Quantification of adenosine in lungs (reversed phase HPLC) after PEGADA; assay type: in vivo
Description: FIG. 5A and FIG. 5B. Reversible lung eosinophilia and lung adenosine levels in ADA deficient mice treated with PEGADA. FIG. […] Differentials were determined by counting 200 cells from BALF cytospins of each sample, and multiplying the percentage of each cell type found by the total number of cells in the BALF. Mean values are given as total cells (S.E.M.). FIG. […] Mean values are given as nanomoles adenosine per mg protein±S.E.M.
as §1, with “This procedure visualizes enzyme activity on non-denaturing agarose gels (Blackburn et al., 1998).” left out
Mice were anesthetized with avertin, the thoracic cavity exposed, and the lungs were removed and frozen rapidly in liquid nitrogen to prevent metabolism of adenine nucleotides and nucleosides. Adenine nucleosides were extracted from frozen lungs using 0.4 N perchloric acid as described (Knudsen et al., 1992), and adenosine was separated and quantitated using reversed phase HPLC according to established procedures (Knudsen et al., 1992). […]

[5] = test system: ADA deficient mice; test: Cellular differentials in bronchial alveolar lavage fluid (BALF) after PEGADA; assay type: in vivo
Description: FIG. 5A and FIG. 5B. Reversible lung eosinophilia and lung adenosine levels in ADA deficient mice treated with PEGADA. FIG. 5A, Total cellular differentials of cells collected from BALF of 18-day old control mice (n=19), ADA deficient mice (n=12) and ADA deficient mice treated with PEGADA and examined 72 hours later (n=5). Differentials were determined by counting 200 cells from BALF cytospins of each sample, and multiplying the percentage of each cell type found by the total number of cells in the BALF. Mean values are given as total cells (S.E.M.). FIG. 5B, Adenosine levels were quantitated in the lungs of 18-day old control mice (n=5), ADA deficient mice (n=4), and ADA deficient mice treated with PEGADA and examined 72 hours later (n=4). Mean values are given as nanomoles adenosine per mg protein±S.E.M.
Mice were anesthetized with avertin and the trachea exposed using blunt dissection. After securing a blunted 21-gauge needle into the trachea, the lungs were lavaged 5 times with 0.25 ml PBS. Lavages from individual animals were pooled and on average 0.95 to 1 ml of lavage fluid was recovered. Samples were centriflged at 2,500 rpm for 5 min to recover cells. Supernatant from these spins were collected and stored at −70 degrees C. for the analysis of cytokines. Cells were resuspended in 200 microliter PBS, an aliquot counted using a hemocytometer and another aliquot cytospun onto microscope slides where cells were stained with Diff-Quick (Dade) for cellular differentials. […] cells per sample were identified and counted under oil immersion.
PEGADA, also known as ADAGEN, was obtained through collaboration with Enzon Inc. (Piscataway, N.J.). […] Levels of ADA enzyme activity in tissues was measured using zymogram analysis according to established procedures (Blackburn et al., 1998). […]
as §2

[6] = weekly intramuscular injections of PEGADA from birth
[7] = 72 hours following treatment with PEGADA

B1: PEGADA: ADA polypeptides conjugated to polyethylene glycol; also known as ADAGEN, obtained from Enzon Inc. (protein, UniProt P56658 2-363, looked up)
Adenosine deaminase: AQTPAFNKPKVELHVHLDGAIKPETILYYGRKRGIALPADTPEELQNIIGMDKPLSLPEFLAKFDYYMPAIAGCREAVKRIAYEFVEMKAKDGVVYVEVRYSPHLLANSKVEPIPWNQAEGDLTPDEVVSLVNQGLQEGERDFGVKVRSILCCMRHQPSWSSEVVELCKKYREQTVVAIDLAGDETIEGSSLFPGHVKAYAEAVKSGVHRTVHAGEVGSANVVKEAVDTLKTERLGHGYHTLEDATLYNRLRQENMHFEVCPWSSYLTGAWKPDTEHPVVRFKNDQVNYSLNTDDPLIFKSTLDTDYQMTKNEMGFTEEEFKRLNINAAKSSFLPEDEKKELLDLLYKAYGMPSPASAEQCL
modifications: PEG conjugate (pegademase)
rescue of ADA deficient mice that without treatment die by three weeks of age ([1]; chronic treatment, intramuscular, approx. 300 U/Kg at postnatal day 4, then every four days 150 to 300 U/Kg): sufficient to rescue ADA deficient mice
recovery and survival ([1]; treated after onset of severe lung inflammation and damage (day 17)): recovered and survived as long as they were maintained on PEGADA
respiratory status ([1]; treated after onset of severe lung inflammation and damage (day 17), within 24 to 48 hours): noticeably improved
development of pulmonary problems [1, 6]: never develop pulmonary problems
survival [1, 6]: survive as long as the animals are maintained on PEGADA
outcome when PEGADA therapy was stopped ([1]; withdrawal of PEGADA therapy): rapidly showed signs of pulmonary insufficiency and died within a week
levels of BALF cytokines [2]: no effect
levels of serum IgE [2]: no effect
accumulation of ADA substrates in ADA deficient humans [3]: prevents the accumulation of ADA substrates
accumulation of adenosine in the lung [4]: prevents the accumulation of adenosine in the lung
adenosine levels in ADA deficient lungs ([4]; 72 hrs following treatment with PEGADA, control < 0.2, untreated ADA deficient 6.3 nmoles/mg protein): lowered to near control levels
alveolar macrophages in BALF [5, 7]: remained elevated
number of eosinophils in BALF [5, 7]: greatly reduced
number of eosinophils found in the BALs ([5]; treatment with PEGADA, as stated in Example 9): decrease in the number of eosinophils
